# Laboratory results from paper PMC5057043.
# Assays:
# [1] = target: Frizzled-7 (microscale thermophoresis) (UniProt O75084); assay: MST
# [2] = target: Frizzled-10 (microscale thermophoresis) (UniProt Q9ULW2); assay: MST
# Chain of Frizzled-10 (microscale thermophoresis) (Q9ULW2 21-581): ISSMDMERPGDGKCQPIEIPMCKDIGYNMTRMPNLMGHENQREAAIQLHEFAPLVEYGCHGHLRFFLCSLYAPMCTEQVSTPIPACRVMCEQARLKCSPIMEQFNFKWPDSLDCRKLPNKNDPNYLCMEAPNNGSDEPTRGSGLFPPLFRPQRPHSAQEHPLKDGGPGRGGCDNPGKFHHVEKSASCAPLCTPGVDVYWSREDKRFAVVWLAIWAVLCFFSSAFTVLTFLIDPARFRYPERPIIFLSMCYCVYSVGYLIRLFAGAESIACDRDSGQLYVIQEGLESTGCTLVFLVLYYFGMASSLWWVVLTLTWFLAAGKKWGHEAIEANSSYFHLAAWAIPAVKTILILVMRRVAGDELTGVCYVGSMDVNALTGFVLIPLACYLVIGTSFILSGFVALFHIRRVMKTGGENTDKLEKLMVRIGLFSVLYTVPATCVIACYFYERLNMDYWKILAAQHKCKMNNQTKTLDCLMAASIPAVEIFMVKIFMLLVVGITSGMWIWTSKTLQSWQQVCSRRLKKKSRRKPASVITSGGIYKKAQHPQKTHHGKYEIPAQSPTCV
# Chain of Human OLFM4 protein (Q6UX06 21-510): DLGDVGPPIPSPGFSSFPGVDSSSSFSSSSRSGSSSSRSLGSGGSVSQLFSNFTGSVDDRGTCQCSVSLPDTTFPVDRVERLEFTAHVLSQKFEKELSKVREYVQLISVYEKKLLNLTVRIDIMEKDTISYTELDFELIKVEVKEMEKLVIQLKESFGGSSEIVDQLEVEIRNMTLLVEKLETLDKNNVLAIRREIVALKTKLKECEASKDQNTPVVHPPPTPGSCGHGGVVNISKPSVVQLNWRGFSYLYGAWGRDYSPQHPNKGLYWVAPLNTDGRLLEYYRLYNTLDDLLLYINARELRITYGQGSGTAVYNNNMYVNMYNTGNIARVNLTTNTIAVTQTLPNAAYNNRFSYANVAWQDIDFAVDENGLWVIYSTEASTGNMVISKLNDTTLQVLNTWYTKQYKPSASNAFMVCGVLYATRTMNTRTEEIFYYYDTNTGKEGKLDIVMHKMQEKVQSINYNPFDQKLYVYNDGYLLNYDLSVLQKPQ
substance,measurement,setting,value
Human OLFM4 protein (from UniProt Q6UX06 21-510) (natural protein),Kd,[1],2.5 µM
same,Kd,[2],10 µM
